Results as given in patent US20250361288A1 (Gilead, published 2025).
Read-outs that look alike come from different tables or passages of the source.

T1: mouse HVEM extracellular domain fused with an Fc fragment at the C-terminus (mouse, UniProt Q80WM9 39-206, limits assumed)
T1 construct: extracellular domain; Bought; also called mHVEM; not shown: Fc fragment at the C-terminus
T1 sequence (looked up): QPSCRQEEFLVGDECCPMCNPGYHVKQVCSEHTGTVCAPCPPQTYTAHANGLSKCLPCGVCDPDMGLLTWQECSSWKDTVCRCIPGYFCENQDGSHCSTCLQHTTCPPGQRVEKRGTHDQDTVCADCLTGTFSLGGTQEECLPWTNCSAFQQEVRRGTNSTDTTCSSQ

T2: human HVEM extracellular domain fused with an Fc fragment at the C-terminus (human, UniProt Q92956 39-202)
T2 construct: extracellular domain; Bought; also called hHVEM; not shown: Fc fragment at the C-terminus
T2 sequence (looked up): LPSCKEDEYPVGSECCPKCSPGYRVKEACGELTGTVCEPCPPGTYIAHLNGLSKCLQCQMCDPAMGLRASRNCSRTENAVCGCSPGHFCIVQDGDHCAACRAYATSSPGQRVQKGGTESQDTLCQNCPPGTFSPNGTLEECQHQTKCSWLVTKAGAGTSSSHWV

T3: recombinant DcR3 protein (human DcR3 residues 33-300 linked to the N-terminal of rabbit Fc) (human, UniProt O95407 33-300)
T3 construct: range 33-300; Expressed in Expi293F, purified on protein A; not shown: rabbit Fc
T3 sequence (looked up): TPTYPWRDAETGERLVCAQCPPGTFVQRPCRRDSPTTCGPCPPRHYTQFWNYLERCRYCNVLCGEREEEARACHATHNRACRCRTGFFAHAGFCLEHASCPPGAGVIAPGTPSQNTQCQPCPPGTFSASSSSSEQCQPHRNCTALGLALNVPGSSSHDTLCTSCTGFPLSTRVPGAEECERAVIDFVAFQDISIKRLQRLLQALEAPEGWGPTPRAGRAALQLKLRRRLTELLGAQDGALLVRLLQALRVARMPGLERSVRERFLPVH


Legend:
[1] = molecular target: T1, mouse HVEM extracellular domain fused …; test: phage ELISA
Outline: (§1)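 Supernatants from fourth-round clones rescued with helper phage were applied to plates coated with 1 μg/ml target for 1 h at room temperature. Bound phage detected with HRP anti-M13 and TMB at OD450; clones were called positive when the target/BSA ratio was >3.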

[2] = molecular target: T4, human LTβR extracellular domain fused with an Fc fragment at the C-terminus (human, UniProt P36941 31-227); test: ELISA on coated target-Fc
T4 construct: extracellular domain; Bought; also called hLTβR; not shown: Fc fragment at the C-terminus
Protocol: (§2) Nunc MaxiSorp 96-well plates (Thermofisher) were coated with target proteins (1 μg/ml), and then blocked with 2% BSA-PBS buffer for one hour. Serial dilutions of the LIGHT muteins were added with a maximum concentration of 200 ng/ml. The plates were incubated for one hour, washed four times with PBST, and then incubated with mouse anti-His tag antibody (#105327, Sino Biological) for 1 hour. The plates were further incubated with HRP-conjugated goat anti-mouse secondary antibody (#SSA006, Sino Biological) before being washed three times with PBST and treated with TMB substrate (#34029, ThermoFisher). The plates were read at 450 nm on a SpectraMax M5 microplate reader (Molecule Devices). The ELISA results were analyzed using GraphPad Prism 9.0 software and the EC50s (half maximal effective concentration) were summarized in Table 5-1 and Table 5-2.

[3] = molecular target: T4, human LTβR extracellular domain fused …; test: ELISA on coated target-Fc; remark: listed apart in the source
Protocol: as §2

[4] = molecular target: T5, mouse LTβR extracellular domain fused with an Fc fragment at the C-terminus (mouse, UniProt P50284 31-223); test: ELISA on coated target-Fc
T5 construct: extracellular domain; Bought; also called mLTβR; not shown: Fc fragment at the C-terminus
Protocol: as §2

[5] = molecular target: T2, human HVEM extracellular domain fused …; test: ELISA on coated target-Fc
Protocol: as §2

[6] = molecular target: T3, recombinant DcR3 protein (human DcR3 …); test: ELISA on coated DcR3-rabbit Fc
Protocol: To test whether the muteins can bind to DcR3, the recombinant DcR3 protein was generated by linking human DcR3 residues 33-300 to the N-terminal of rabbit Fc. The recombinant proteins were expressed in Expi293F and affinity-purified using protein A beads, as previously described. Human DcR3 proteins were immobilized onto maxiSorp 96-well ELISA plates (Thermo Fisher) at a concentration of 0.5 μg/mL and then blocked with 2% BSA-PBS buffer for one hour. The LIGHT variants were added to the plates at various dilutions, with a maximum concentration of 10 nM. The plates were incubated for one hour, washed four times with PBST, and then incubated with mouse anti-His tag antibody (#105327, Sino Biological) for 1 hour. The plates were further incubated with HRP-conjugated goat anti-mouse secondary antibody (#SSA006, Sino Biological) before being washed three times with PBST and treated with TMB substrate (#34029, ThermoFisher). The plates were read at 450 nm on a SpectraMax M5 microplate reader (Molecule Devices). The ELISA results were analyzed using GraphPad Prism 9.0 software and the EC50s (half maximal effective concentration) were summarized in Table 5-2.

[7] = molecular target: T5, mouse LTβR extracellular domain fused …; test: ELISA on coated target-Fc; remark: listed apart in the source
Protocol: as §2

[8] = molecular target: T2, human HVEM extracellular domain fused …; test: ELISA on coated target-Fc, Table 5-1
Protocol: as §2

[9] = molecular target: T2, human HVEM extracellular domain fused …; test: ELISA on coated target-Fc; remark: listed apart in the source
Protocol: as §2

[10] = molecular target: T5, mouse LTβR extracellular domain fused …; test: phage ELISA
Outline: as §1

T5 sequence (P50284 31-223): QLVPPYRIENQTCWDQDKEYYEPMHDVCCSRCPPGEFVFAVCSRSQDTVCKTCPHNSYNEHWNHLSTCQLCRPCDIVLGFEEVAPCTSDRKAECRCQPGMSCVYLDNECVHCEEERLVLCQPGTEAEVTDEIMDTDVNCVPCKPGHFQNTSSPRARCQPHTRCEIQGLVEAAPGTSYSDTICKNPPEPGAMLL
T4 sequence (P36941 31-227): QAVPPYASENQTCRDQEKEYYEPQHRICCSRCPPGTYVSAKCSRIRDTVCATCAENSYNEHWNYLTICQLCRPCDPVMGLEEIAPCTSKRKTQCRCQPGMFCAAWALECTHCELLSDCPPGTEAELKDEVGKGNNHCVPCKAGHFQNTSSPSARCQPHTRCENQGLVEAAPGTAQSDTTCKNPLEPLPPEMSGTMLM

Binder	binding result [1]	EC50 [2]	EC50 [3]	EC50 [4]	EC50 [5]	EC50 [6]	EC50 [7]	binding result [8]	EC50 [9]	binding result [10]
LIGHT (74-240) (ligand, Soluble protein carries an N-terminal His tag; also called wild-type human LIGHT; LIGHT (74-240) (wt)) DGPAGSWEQLIQERRSHEVNPAAHLTGANSSLTGSGGPLLWETQLGLAFLRGLSYHDGALVVTKAGYYYIYSKVQLGGVGCPLGLASTITHGLYKRTPRYPEELELLVSQQSPCGRATSSSRVWWDSSFLGGVVHLEAGEKVVVRVLDERLVRLRDGTRSYFGAFMV	binds	0.22 µg/mL	0.365 nM	0.885 nM	0.992 nM	0.247 nM				
LIGHT-90 (ligand, Printed mutations: S160G, T161G, L220T, E222S; Soluble protein carries an N-terminal His tag) DGPAGSWEQLIQERRSHEVNPAAHLTGANSSLTGSGGPLLWETQLGLAFLRGLSYHDGALVVTKAGYYYIYSKVQLGGVGCPLGLAGGITHGLYKRTPRYPEELELLVSQQSPCGRATSSSRVWWDSSFLGGVVHLEAGEKVVVRVTDSRLVRLRDGTRSYFGAFMV			1.78 nM	0.978 nM	2.12 nM	0.692 nM				
LIGHT-58 (ligand, Printed mutations: S160G, T161G, L220S; Soluble protein carries an N-terminal His tag) DGPAGSWEQLIQERRSHEVNPAAHLTGANSSLTGSGGPLLWETQLGLAFLRGLSYHDGALVVTKAGYYYIYSKVQLGGVGCPLGLAGGITHGLYKRTPRYPEELELLVSQQSPCGRATSSSRVWWDSSFLGGVVHLEAGEKVVVRVSDERLVRLRDGTRSYFGAFMV			0.309 nM	0.273 nM	0.432 nM	0.184 nM				
LIGHT-7 (ligand, Printed mutations: P155R, L220Q, R232H; Soluble protein carries an N-terminal His tag) DGPAGSWEQLIQERRSHEVNPAAHLTGANSSLTGSGGPLLWETQLGLAFLRGLSYHDGALVVTKAGYYYIYSKVQLGGVGCRLGLASTITHGLYKRTPRYPEELELLVSQQSPCGRATSSSRVWWDSSFLGGVVHLEAGEKVVVRVQDERLVRLRDGTHSYFGAFMV	binds	0.109 µg/mL					0.156 µg/mL	no binding		
LIGHT-60 (ligand, Printed mutations: S160G, T161G, L220S, E222S; Soluble protein carries an N-terminal His tag) DGPAGSWEQLIQERRSHEVNPAAHLTGANSSLTGSGGPLLWETQLGLAFLRGLSYHDGALVVTKAGYYYIYSKVQLGGVGCPLGLAGGITHGLYKRTPRYPEELELLVSQQSPCGRATSSSRVWWDSSFLGGVVHLEAGEKVVVRVSDSRLVRLRDGTRSYFGAFMV			0.919 nM	0.63 nM	0.639 nM	0.311 nM				
LIGHT-86 (ligand, Printed mutations: G150R, S160R, L220S; Soluble protein carries an N-terminal His tag) DGPAGSWEQLIQERRSHEVNPAAHLTGANSSLTGSGGPLLWETQLGLAFLRGLSYHDGALVVTKAGYYYIYSKVQLRGVGCPLGLARTITHGLYKRTPRYPEELELLVSQQSPCGRATSSSRVWWDSSFLGGVVHLEAGEKVVVRVSDERLVRLRDGTRSYFGAFMV			0.336 nM	0.327 nM	5.27 nM	25.9 nM				
LIGHT-89 (ligand, Soluble protein carries an N-terminal His tag) DGPAGSWEQLIQERRSHEVNPTAHLTGANSSLTGSGGPLLWETQLGLAFLRGLSYHDGALVVTKAGYYYIYSKVQLRGVGCPLGLARTITHGLYKRTPRYLEELELLVSQQSPCGRATSSSRVWQDSSFLGGVVHLEAGEKVVVRVLDERLVRLLDGTRSYFGAFMV			0.625 nM	0.503 nM						
LIGHT-52 (ligand, Printed mutations: L220S; Soluble protein carries an N-terminal His tag) DGPAGSWEQLIQERRSHEVNPAAHLTGANSSLTGSGGPLLWETQLGLAFLRGLSYHDGALVVTKAGYYYIYSKVQLGGVGCPLGLASTITHGLYKRTPRYPEELELLVSQQSPCGRATSSSRVWWDSSFLGGVVHLEAGEKVVVRVSDERLVRLRDGTRSYFGAFMV	binds	0.0577 µg/mL	0.33 nM	2.07 nM	0.599 nM	0.19 nM	0.0279 µg/mL		0.019 µg/mL	
LIGHT-88 (ligand, Printed mutations: A95T, G150R, S160R, P174L, W198Q, L220S, R228L; Soluble protein carries an N-terminal His tag) DGPAGSWEQLIQERRSHEVNPTAHLTGANSSLTGSGGPLLWETQLGLAFLRGLSYHDGALVVTKAGYYYIYSKVQLRGVGCPLGLARTITHGLYKRTPRYLEELELLVSQQSPCGRATSSSRVWQDSSFLGGVVHLEAGEKVVVRVSDERLVRLLDGTRSYFGAFMV			0.264 nM	0.262 nM						
LIGHT-42 (ligand, Printed mutations: G150R, L220S; Soluble protein carries an N-terminal His tag) DGPAGSWEQLIQERRSHEVNPAAHLTGANSSLTGSGGPLLWETQLGLAFLRGLSYHDGALVVTKAGYYYIYSKVQLRGVGCPLGLASTITHGLYKRTPRYPEELELLVSQQSPCGRATSSSRVWWDSSFLGGVVHLEAGEKVVVRVSDERLVRLRDGTRSYFGAFMV	binds	0.0639 µg/mL					0.025 µg/mL		0.0814 µg/mL	
LIGHT-3 (ligand, Printed mutations: G150A, L220S; Soluble protein carries an N-terminal His tag) DGPAGSWEQLIQERRSHEVNPAAHLTGANSSLTGSGGPLLWETQLGLAFLRGLSYHDGALVVTKAGYYYIYSKVQLAGVGCPLGLASTITHGLYKRTPRYPEELELLVSQQSPCGRATSSSRVWWDSSFLGGVVHLEAGEKVVVRVSDERLVRLRDGTRSYFGAFMV	binds	0.0436 µg/mL					0.0401 µg/mL	no binding		
LIGHT-61 (ligand, Printed mutations: S160G, T161P, L220S, E222S; Soluble protein carries an N-terminal His tag) DGPAGSWEQLIQERRSHEVNPAAHLTGANSSLTGSGGPLLWETQLGLAFLRGLSYHDGALVVTKAGYYYIYSKVQLGGVGCPLGLAGPITHGLYKRTPRYPEELELLVSQQSPCGRATSSSRVWWDSSFLGGVVHLEAGEKVVVRVSDSRLVRLRDGTRSYFGAFMV			0.482 nM	0.498 nM	0.46 nM	0.213 nM				
LIGHT-87 (ligand, Printed mutations: G150R, S160R, W198Q, L220S, R228L; Soluble protein carries an N-terminal His tag) DGPAGSWEQLIQERRSHEVNPAAHLTGANSSLTGSGGPLLWETQLGLAFLRGLSYHDGALVVTKAGYYYIYSKVQLRGVGCPLGLARTITHGLYKRTPRYPEELELLVSQQSPCGRATSSSRVWQDSSFLGGVVHLEAGEKVVVRVSDERLVRLLDGTRSYFGAFMV			0.413 nM	0.315 nM	6.68 nM					
LIGHT-5 (ligand, Printed mutations: T161P, R189S, W198Q, R228L; Soluble protein carries an N-terminal His tag) DGPAGSWEQLIQERRSHEVNPAAHLTGANSSLTGSGGPLLWETQLGLAFLRGLSYHDGALVVTKAGYYYIYSKVQLGGVGCPLGLASPITHGLYKRTPRYPEELELLVSQQSPCGSATSSSRVWQDSSFLGGVVHLEAGEKVVVRVLDERLVRLLDGTRSYFGAFMV	binds	0.0538 µg/mL						no binding		binds
